Measured values taken from patent US20240343803A1 (SHANDONG SIMCERE BIOPHARMACEUTICAL, published 2024).

T1: human PVRIG-his (AcroBiosystems, Cat NO. PVG-H52H4) (human, UniProt Q6DKI7 41-171, limits assumed)
T1 construct: treated as the same protein; also called human PVRIG-His protein; Human PVRIG-His, Acro C227P1-9ARF1-T4
T1 sequence (looked up): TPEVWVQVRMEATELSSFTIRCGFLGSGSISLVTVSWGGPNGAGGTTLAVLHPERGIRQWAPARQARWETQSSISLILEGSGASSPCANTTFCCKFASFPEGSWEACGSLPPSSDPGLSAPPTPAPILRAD

T2: human PVRIG-mFc protein (Acro, PVG-H5253) (human, UniProt Q6DKI7 41-171, limits assumed)
T2 construct: bought reagent; also called PVRIG-ECD-mFc
T2 sequence (looked up): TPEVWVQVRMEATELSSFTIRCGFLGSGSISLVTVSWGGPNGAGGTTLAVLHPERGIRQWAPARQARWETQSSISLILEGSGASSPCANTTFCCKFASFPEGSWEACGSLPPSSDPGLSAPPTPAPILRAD

T3: human PVRIG on FlpinCHO-PVRIG cells (human, UniProt Q6DKI7 41-326)
T3 construct: whole, on cells; also called FlpinCHO-hPVRIG; FlpinCHO-human PVRIG
T3 sequence (looked up): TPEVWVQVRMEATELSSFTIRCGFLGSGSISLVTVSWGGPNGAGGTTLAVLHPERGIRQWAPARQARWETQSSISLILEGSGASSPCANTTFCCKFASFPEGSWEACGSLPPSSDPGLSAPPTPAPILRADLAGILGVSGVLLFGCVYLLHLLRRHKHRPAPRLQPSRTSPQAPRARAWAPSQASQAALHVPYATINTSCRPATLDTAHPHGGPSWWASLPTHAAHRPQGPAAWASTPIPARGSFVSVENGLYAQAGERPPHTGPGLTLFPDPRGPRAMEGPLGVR


Legend:
[1] = target: T1, human PVRIG-his (AcroBiosystems, Cat …); experiment: competition ELISA on coated human PVRIG-his; blocked ligand human PVRL2-mFc
Method: The ELISA plate was pre-coated with 100 μL/well of 0.5 μg/mL human PVRIG-his protein (AcroBiosystems, Cat NO. PVG-H52H4). The tested anti-PVRIG antibodies were diluted from the highest concentration of 16 nM (two-fold concentration). The diluted antibodies were mixed with 18 ng/ml human PVRL2-mFc (AcroBiosystems, Cat NO. CD2-H5257) in equal volume, added into the plate (100 μL/well), and incubated with shaking at room temperature for 2.0 hours. […] A HRP substrate, TMB (Thermo, Cat NO. 34029) was added into wells after washing the plate again for color development. After adding a termination solution to terminate the reaction, the absorbance value was read by a microplate reader (MD i3×). An inhibiting curve was drawn with concentration of antibodies as the abscissa and the corresponding OD value as the ordinate. The IC50 value was calculated by using a Four Parameter Logistic Fit (GraphPadPrism9). The smaller the IC50 value, the stronger the ability of the antibodies inhibits the binding between PVRIG and PVRL2. The positive and negative controls are the same as in Example 8.

[2] = target: T2, human PVRIG-mFc protein (Acro, …); experiment: competition FACS; blocked: human PVRIG-mFc binding to CHO-K1-CD112 cells
Method: After incubation, the cells were added with staining buffer (2% FBS+PBS) to stop staining, centrifuged at 350×g to remove the supernatant, washed twice and resuspended with staining buffer to a density of 1×10⁶ cells/mL. The cells were plated into a 96-well plate (50 μL of cell suspension per well) for further use. A working solution of human PVRIG-mFc protein (Acro, PVG-H5253) prepared with staining buffer, 1 μg/mL (four-fold concentration), was added into a 96-well plate (50 μL PVRIG-mFc working solution per well). […] The diluted antibodies were added to the well containing 50 μL of PVRIG-mFc. The plate was placed on a microplate shaker at 400 rpm for 1 minute to fully mix the antibodies and PVRIG-mFc proteins, and then incubated at 4° C. for 30 minutes. After the incubation, the cell suspension prepared above (100 μL) was added into the wells, gently mixed with the pipette tip and incubated at 4° C. for 30 minutes. After the incubation, the cells were washed twice with staining buffer (200 μL per well) and centrifuged at 350×g for 5 minutes to discard the supernatant. The PE goat anti-mouse IgG Fc antibody (Biolegend, 405337) was diluted 250 times with staining buffer, added into the washed wells (100 μL per well), mixed well, and stained at 4° C. for 30 minutes. After staining, the cells were washed twice with staining buffer, finally resuspended with 200 μL staining buffer and analyzed by flow cytometry (BD, Canto II). The weaker the fluorescence signal, the stronger the ability of the antibodies blocks the binding of CHO-K1 human CD112 cells to the PVRIG-mFc protein. An antibody binding curve was drawn with concentration of antibodies as the abscissa and the corresponding Mean Fluorescence Intensity (MFI) as the ordinate. The IC50 value of the antibodies and the AUC value of the binding curve were calculated by using a Four Parameter Logistic Fit (GraphPadPrism9). The smaller the IC50 value and AUC value, the stronger the ability of the antibodies competes with CHO-K1-CD112 cells to bind to human PVRIG-mFc protein.

[3] = target: T3, human PVRIG on FlpinCHO-PVRIG cells; experiment: FACS, FlpinCHO-PVRIG cells
Method: After discarding the cell culture medium, the cells were rinsed with PBS and digested for 8-10 minutes by adding 1 mL Versene (Gibico, 15040-066). The Ham's F12 (Gibico, 21127-022) complete medium containing 10% FBS was then added to terminate the digestion and acquire cell suspension. After counting with a cell counter (Beckman Coulter, Vi-CELL), an appropriate amount of cell suspension was centrifuged at 350×g to remove the supernatant, washed twice with PBS, stained with Zombie violet (Biolegend, 423114) and incubated at room temperature for 20 minutes. After incubation, the cells were added with staining buffer (2% FBS+PBS) to stop staining, centrifuged at 350×g to remove the supernatant, washed twice and resuspended with staining buffer to a density of 2×10⁶ cells/mL. The cells were plated into a 96-well plate (50 μL of cell suspension per well) for further use. The antibodies were diluted from the highest concentration of 46 nM (two-fold concentration) with staining buffer by 3.3-fold serial dilution. The diluted antibodies were added to the well containing 50 μL of cell suspension. The plate was placed on a microplate shaker at 400 rpm for 1 minute to fully mix the antibodies and cells, and then incubated at 4° C. for 30 minutes. After the incubation, the cells were washed twice with staining buffer (200 μL per well) and centrifuged at 350×g for 5 minutes to discard the supernatant. The PE goat anti-human IgG Fc antibody (ebioscience, 12-4998-82) was diluted 250 times with staining buffer, added into the washed wells (100 μL per well), mixed well, and stained at 4° C. for 30 minutes. After staining, the cells were washed twice with staining buffer, finally resuspended with 200 μL staining buffer and analyzed by flow cytometry (BD, Canto II). The stronger the signal, the stronger the ability of the antibodies binds to PVRIG. An antibody binding curve was drawn with concentration of antibodies as the abscissa and the corresponding Mean Fluorescence Intensity (MFI) as the ordinate. The AUC value of the curve was calculated by using a Four Parameter Logistic Fit (GraphPadPrism9).

Row | IC50 (read off the curve) [1] | IC50 (read off the curve) [2] | EC50 (read off the curve) [3] | Binder
1 | ~0.5 nM | ~1 nM | ~0.3 nM | PVRIG-A117 (VHH, tested as VHH-hinge-CH2-CH3 (human IgG1-Fc); not shown: human IgG1 hinge-CH2-CH3) VHH: EVQVVESGGGLVQAGGSLRLSCTASEHIYDLYIMGWYRQAPGKDRELVATITYTGSIYIADSVKDRFTISRGNAKNTVSLQMSGLKPEDTAVYYCNADPSGLGRKLYWGQGTQVTVSS
2 | ~0.8 nM | ~0.9 nM | ~0.1 nM | PVRIG-A11 (VHH, tested as VHH-hinge-CH2-CH3 (human IgG1-Fc); not shown: human IgG1 hinge-CH2-CH3) VHH: QLQLVESGGGLVQPGGSLRLSCAASGFTDDYYAIGWFRQAPGKEREGVSCISGSGGSTNYEDSVKGRFAISRDNAKNMVYLQMNDLKPEDTAVYYCAADPFWSAPCTGHNDRYFDVWGQGTLVTVSS
